{
  "source": "patent US20090068102A1",
  "about": "“TREATING STROKE” (BIOGEN IDEC MA INC., priority 2005, published 2009)",
  "molecules": {"B1": {"name": "rhTWEAK: recombinant soluble human TWEAK containing amino-acid residues A106-H249 (protein, UniProt O43508 106-249, looked up, fragment)", "chain": "AIAAHYEVHPRPGQDGAQAGVDGTVSGWEEARINSSSPLRYNRQIGEFIVTRAGLYYLYCQVHFDEGKAVYLKLDLLVDGVLALRCLEEFSATAASSLGPQLRLCQVSGLLALRPGSSLRIRTLPWAHLKAAPFLTYFGLFQVH"}},
  "key": {"NF-κB": {"system": "NF-κB", "assay": "NF-κB luciferase reporter (pNF-κB-Luc) in transfected cortical neurons", "assay_type": "cell-based, mouse", "description": "(§1) Cell culture and transient transfection. Cortical neurons were prepared from embryonic day 16 (E16) mice. For transfection, cells were plated on 24-well plates precoated with poly-D-lysine (50 ng/ml) at a density of 200,000 cells per well. For RNA preparation, 2 million cells per well were plated on six-well plates. Cells were incubated in NEUROBASAL™ medium (Invitrogen) supplemented with B27 (Invitrogen), L-glutamine (0.5 mM), penicillin (100 IU/ml), and streptomycin (100 μg/ml). In these cultures, >95% of cells were positive for the neuronal marker NeuN. After 10 days in vitro, cells were transfected using LIPOFECTAMINE™ 2000 (Invitrogen) and 1 ng per well of the NF-κB reporter plasmid pNF-κB-Luc, which has five tandem repeats of an NF-κB binding site (Stratagene, Amsterdam, The Netherlands), according to the manufacturer's protocol. After 24 hours, cells were stimulated as indicated and harvested. Luciferase activity was measured as described (Sallmann et al. (2000) J. Neurosci. 20:8637-8642).\n(§2) As indicated, cortical neurons were prepared from a transgenic mouse line (NSE-IκBα-SR) that expressed the NF-κB super-repressor, a mutant of IκBα (IκBα-SR), selectively in neurons. In this transgene, two serine residues, which are phosphorylated by the IκB kinase (IKK), are exchanged to alanines. Neuronal expression is driven by a 1.8 KB fragment of the rat neuron-specific enolase (NSE) promoter. The cell dissociation was performed individually from the brain of each transgenic or wild-type embryo. To control for transfection efficiency, cortical neurons of NSE-IκBα-SR mice and wild-type littermates were cotransfected with 0.1 μg Per well of phRL-TK (Promega, Mannheim, Germany) in addition to pNF-κB-Luc."}, "cortical neurons [1]": {"system": "cortical neurons", "assay": "TWEAK-induced cell death in cortical neurons (DAPI and TUNEL staining)", "assay_type": "cell-based", "description": "as §1\nas §2, with “To control for transfection efficiency, cortical neurons of NSE-IκBα-SR mice and wild-type littermates were cotransfected with 0.1 μg Per well of phRL-TK (Promega, Mannheim, Germany) in addition to pNF-κB-Luc.” left out\nCell death assays. […] TUNEL and DAPI-positive cells were detected under a fluorescent microscope. On each coverslip, five randomly selected fields were counted with a 40× objective (corresponding to ˜800 cells per coverslip). […] Lactate dehydrogenase (LDH) activity in medium was quantified with the Cytotoxicity Detection Kit (LDH; Roche). LDH activity in untreated sister cultures was subtracted, and the LDH activity was expressed as percentage of the maximally releasable LDH pool in the presence of 1 mM glutamate."}, "cortical neurons [2]": {"system": "cortical neurons", "assay": "Cell Death Detection ELISA (histone-associated DNA fragments) in cortical neurons", "assay_type": "cell-based, mouse", "conditions": "100 ng/ml, 24 hr", "description": "Cell death assays. For terminal deoxynucleotidyl transferase-mediated biotinylated UTP nick end labeling (TUNEL) staining, the cells were fixed in 4% paraformaldehyde at room temperature for 30 minutes. Then, cells were washed twice in PBS for 5 minutes and treated for 2 minutes with 200 μl of permeabilization solution (0.1% Triton X-100 and 0.1% sodium citrate in PBS) at 4° C. After washing, sections were incubated with 50 μl of TUNEL reaction mix (enzyme solution diluted 1:6 in labeling solution; In Situ Cell Detection Kit, Fluorescein; Roche, Mannheim, Germany) for 1 hour at 37° C. in the dark. Then, coverslips were mounted with medium containing 4′,6-diamidino-2-phenylindole dihydrochloride (DAPI; VECTASHIELD®; Vector Laboratories, Burlingame, Calif.). TUNEL and DAPI-positive cells were detected under a fluorescent microscope. On each coverslip, five randomly selected fields were counted with a 40× objective (corresponding to ˜800 cells per coverslip). Cell Death Detection ELISA^Plus (Roche) was performed according to the manufacturer's instructions. Lactate dehydrogenase (LDH) activity in medium was quantified with the Cytotoxicity Detection Kit (LDH; Roche). LDH activity in untreated sister cultures was subtracted, and the LDH activity was expressed as percentage of the maximally releasable LDH pool in the presence of 1 mM glutamate."}, "[3]": {"conditions": "exposure for 24 hours, 100 ng/ml"}},
  "data": [
    {"molecule": "Cc1ccc2nc(NCCN)c3ncc(C)n3c2c1", "note": "[BMS-345541, reference compound]", "values": [
      {"measurement": "NF-κB activation by rhTWEAK and Fc-hTWEAK", "setting": "NF-κB; BMS-345541 25 μM", "value": "blocked"}
    ]},
    {"molecule": "B1", "values": [
      {"measurement": "NF-κB stimulation in neurons of NSE-IκBα-SR mice vs wild-type littermates", "setting": "NF-κB; rhTWEAK 100 ng/ml", "value": "significantly less"},
      {"measurement": "NF-κB activity (luciferase)", "setting": "NF-κB; stimulation for 24 hours", "value": "stimulated NF-κB activity in a concentration-dependent manner"},
      {"measurement": "nuclear condensation (DAPI stain)", "setting": "cortical neurons [1]; [3]", "value": "induced nuclear condensation"},
      {"measurement": "number of cortical neurons that were TUNEL positive", "setting": "cortical neurons [1]; [3]", "value": "increased significantly"},
      {"measurement": "cell death (TUNEL) in IκBα-SR-expressing neurons vs wild-type", "setting": "cortical neurons [1]; rhTWEAK 100 ng/ml, 24 hours", "value": "protected from cell death"},
      {"measurement": "DNA-histone complexes specific to apoptotic DNA fragmentation (ELISA)", "setting": "cortical neurons [2]", "value": "programmed cell death being induced"},
      {"measurement": "effect size in DNA-histone ELISA compared with camptothecin", "setting": "cortical neurons [2]; vs 10 μM camptothecin", "value": "comparable with the one with 10 μM camptothecin"}
    ]}
  ]
}
